# Results reported in patent publication US9402900B2, “Methods of modulating adrenomedullin by administering an anti-adrenomedullin (ADM) antibody” (ADRENOMED AG, priority 2011, dated 2016).
# T1: Human ADM 1-52 bioactivity at human recombinant adrenomedullin receptor (CRLR+RAMP3) in CHO-K1 cells (Homo sapiens, UniProt P35318)
# T1 construct: comprises the amino acids 95 to 146 of pre-proADM; FAST-027C (receptor cell line); host or cells: CHO-K1 cells transfected with human CRLR+RAMP3
# T1 sequence (P35318 95-146): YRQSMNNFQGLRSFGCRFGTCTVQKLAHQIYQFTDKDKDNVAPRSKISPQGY
# T2: hADM (Homo sapiens, UniProt P35318)
# T2 construct: comprises the amino acids 95 to 146 of pre-proADM; purchased BACHEM AG, Switzerland
# T2 sequence (P35318 95-146): T1 sequence (P35318 95-146)
# B1: NT-H: mouse monoclonal antibody raised against human ADM region 1-21 (SEQ ID: 15) (antibody, V domains shown)
# VH: QVQLQQSGAELMKPGASVKISCKATGYTFSRYWIEWVKQRPGHGLEWIGEILPGSGSTNYNEKFKGKATITADTSSNTAYMQLSSLTSEDSAVYYCTEGYEYDGFDYWGQGTTLTVSS
# VL: DVLLSQTPLSLPVSLGDQATISCRSSQSIVYSNGNTYLEWYLQKPGQSPKLLIYRVSNRFSGVPDRFSGSGSGTDFTLKISRVEAEDLGVYYCFQGSHIPYTFGGGTKLEIK
# Key:
# [1] = molecular target: T1, Human ADM 1-52 bioactivity at human recombinant adrenomedullin receptor (CRLR+RAMP3) in CHO-K1 cells; experiment: Human recombinant Adrenomedullin receptor cAMP functional assay (Adrenomedullin Bioassay), human ADM as agonist; assay type: cell-based; conditions: in the presence of 5.63 nM Human ADM 1-52; antibody up to 100 μg/ml
# Protocol: The effect of selected ADM-antibodies on ADM-bioactivity was tested in an human recombinant Adrenomedullin receptor cAMP functional assay (Adrenomedullin Bioassay).
# Testing of Antibodies Targeting Human or Mouse Adrenomedullin in Human Recombinant Adrenomedullin Receptor cAMP Functional Assay (Adrenomedullin Bioassay)
# Receptor: Adrenomedullin (CRLR+RAMP3)
# Receptor Accession Number Cell line: CRLR: U17473; RAMP3: AJ001016
# Dose response curves were performed in parallel with the reference agonists (hADM or mADM).
# For antagonist testing, 6 μl of the reference agonist (human (5.63 nM) or mouse (0.67 nM) adrenomedullin) was mixed with 6 μl of the test samples at different antagonist dilutions; or with 6 μl buffer. After incubation for 60 min at room temperature, 12 μl of cells (2,500 cells/well) were added. The plates were incubated for 30 min at room temperature.
# The anti-h-ADM antibodies (NT-H, MR-H, CT-H) were tested for antagonist activity in human recombinant adrenomedullin receptor (FAST-027C) cAMP functional assay in the presence of 5.63 nM Human ADM 1-52, at the following final antibody concentrations: 100 μg/ml, 20 μg/ml, 4 μg/ml, 0.8 μg/ml, 0.16 μg/ml.
# hADM = molecular target: T2, hADM; experiment: hADM sandwich luminescence immunoassay, dose/signal curve in presence of antibody; conditions: 100 μg/mL antibody
# Protocol: The assay was calibrated, using dilutions of hADM
# Unbound tracer was removed by washing 5 times (each 1 ml) with washing solution (20 mM PBS, pH 7.4, 0.1% Triton X-100).
# Tube-Bound Chemiluminescence was Measured by Using the LB 953
molecule,measurement,setting,value
B1,Maximal inhibition of ADM bioactivity (ADM-Bioassay) (%),[1],38%
same,Effect on the hADM immunoassay (dose/signal curve),hADM,did not affect
